Paper PMC8208478, “A Bacteriophage DNA Mimic Protein Employs a Non-specific Strategy to Inhibit the Bacterial RNA Polymerase” (Frontiers in Microbiology, 2021)

Target: T1, His-tagged Gp44, full length (1–237) (bacteriophage SPO1)
T1 construct: Gp44, product of gene 44 of bacteriophage SPO1 of Bacillus subtilis, full length, residues 1-237, 27 kDa; The purified constructs came from pET-46 EK/LIC, which adds an N-terminal His-tag; C-terminal His-tagged and tag-free constructs (pDE2) were also made; PDB 6L6V holds only residues 1-55; also called Gp44^(1–237); recombinant Gp44; not shown: His-tag, N-terminal, kept
Test: ITC; MicroCal PEAQ-ITC, 25°C, dialysis buffer; 30 μM β or β′ subunit in the cell, 300 μM Gp44 in the syringe, 19 injections of 2 μL at 120 s intervals
Details: both partners purified

B1: recombinant RNAP β subunit used in ITC (species not named) (natural protein)
chain: MTGQLVQYGRHRQRRSYARISEVLELPNLIEIQTSSYQWFLDEGLREMFQDISPIEDFTGNLSLEFIDYSLGEPKYPVEESKERDVTYSAPLRVKVRLINKETGEVKDQDVFMGDFPIMTDTGTFIINGAERVIVSQLVRSPSVYFSGKVDKNGKKGFTATVIPNRGAWLEYETDAKDVVYVRIDRTRKLPVTVLLRALGFGSDQEILDLIGENEYLRNTLDKDNTENSDKALLEIYERLRPGEPPTVENAKSLLDSRFFDPKRYDLANVGRYKINKKLHIKNRLFNQRLAETLVDPETGEILAEKGQILDRRTLDKVLPYLENGIGFRKLYPNGGVVEDEVTLQSIKIFAPTDQEGEQVINVIGNAYIEEEIKNITPADIISSISYFFNLLHGVGDTDDIDHLGNRRLRSVGELLQNQFRIGLSRMERVVRERMSIQDTNTITPQQLINIRPVIASIKEFFGSSQLSQFMDQTNPLAELTHKRRLSALGPGGLTRERAGMEVRDVHYSHYGRMCPIETPEGPNIGLINSLSSYAKVNRFGFIETPYRRVDPETGKVTGRIDYLTADEEDNYVVAQANARLDDEGAFIDDSIVARFRGENTVVSRNRVDYMDVSPKQVVSAATACIPFLENDDSNRALMGANMQRQAVPLMQPEAPFVGTGMEYVSGKDSGAAVICKHPGIVERVEAKNVWVRRYEEVDGQKVKGNLDKYSLLKFVRSNQGTCYNQRPIVSVGDEVVKGEILADGPSMELGELALGRNVMVGFMTWDGYNYEDAIIMSERLVKDDVYTSIHIEEYESEARDTKLGPEEITRDIPNVGEDALRNLDDRGIIRIGAEVKDGDLLVGKVTPKGVTELTAEERLLHAIFGEKAREVRDTSLRVPHGGGGIIHDVKVFNREDGDELPPGVNQLVRVYIVQKRKISEGDKMAGRHGNKGVISKILPEEDMPYLPDGTPIDIMLNPLGVPSRMNIGQVLELHMGMAARYLGIHIASPVFDGAREEDVWETLEEAGMSRDAKTVLYDGRTGEPFDNRVSVGIMYMIKLAHMVDDKLHARSTGPYSLVTQQPLGGKAQFGGQRFGEMEVWALEAYGAAYTLQEILTVKSDDVVGRVKTYEAIVKGDNVPEPGVPESFKVLIKELQSLGMDVKILSGDEEEIEMRDLEDEEDAKQADGLALSGDEEPEETASADVERDVVTKE
  Kd: 3.46 ± 0.27 µM
